Reference: publication PMC9136706
Values joined by “and” are separate entries in the source; they are usually repeats but may differ in a detail not shown here. Equal entries are not always repeated.

Tests used:
[1] = target: human CD40 on HEK-Blue CD40L cells (human) (UniProt P25942)
[2] = target: DechCD40L (Dec-fused human CD40L) (bacteriophage L | human) (UniProt P29965); assay: SEC
[3] = target: Expanded P22 virus-like particle (bacteriophage P22 capsid) (bacteriophage P22) (UniProt P26747); assay: SEC-MALS
Chain of UniProt P26747 (P26747 whole entry): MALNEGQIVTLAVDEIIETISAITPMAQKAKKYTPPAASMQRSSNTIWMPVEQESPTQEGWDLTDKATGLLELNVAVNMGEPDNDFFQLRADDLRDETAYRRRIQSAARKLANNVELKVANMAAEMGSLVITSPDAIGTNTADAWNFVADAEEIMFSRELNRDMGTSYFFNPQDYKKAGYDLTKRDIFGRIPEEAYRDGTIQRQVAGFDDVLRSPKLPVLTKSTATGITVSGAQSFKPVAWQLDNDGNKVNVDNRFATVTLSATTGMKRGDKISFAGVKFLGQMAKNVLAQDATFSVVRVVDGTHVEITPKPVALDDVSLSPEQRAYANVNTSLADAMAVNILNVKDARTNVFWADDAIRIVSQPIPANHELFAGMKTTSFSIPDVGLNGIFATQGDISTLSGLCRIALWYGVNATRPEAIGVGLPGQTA

Chain of UniProt P25942 (P25942 21-277): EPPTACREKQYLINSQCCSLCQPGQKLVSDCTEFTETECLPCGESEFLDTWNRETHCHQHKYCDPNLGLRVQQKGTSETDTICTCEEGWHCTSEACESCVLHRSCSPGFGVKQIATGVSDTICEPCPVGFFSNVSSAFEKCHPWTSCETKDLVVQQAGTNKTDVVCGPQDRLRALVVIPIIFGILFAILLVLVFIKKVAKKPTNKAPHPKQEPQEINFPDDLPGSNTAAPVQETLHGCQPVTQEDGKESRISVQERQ

How did the fold lower EC50 of the SEAP reporter than free hCD40L [1] turn out when “DechCD40L bound to P22 (DechCD40L-P22) (from UniProt P29965 114-261; P26747 1-430) (complex)” was run?
Its fold lower EC50 of the SEAP reporter than free hCD40L is 53.6 fold.

Which percent of the total peak in the shoulder multimer peak [2] does the source give for “DechCD40L (Dec-fused human CD40L) (from UniProt P29965 114-261) (ligand)” here?
Its percent of the total peak in the shoulder multimer peak is 8.2%.

And the stoichiometry N [2]?
Its stoichiometry N is 3 and 6.

How did the stoichiometry N (Dec per capsid) [3] turn out when “Dec (decoration protein of bacteriophage L), wild type (natural protein)” was run?
The stoichiometry N (Dec per capsid) was 60.
